Measurements: article PMC4141738

Molecular target: endogenous PABPC1 of HEK 293T cells (human (endogenous in HEK 293T)) (UniProt P11940)
UniProt P11940, sequence (P11940 whole entry): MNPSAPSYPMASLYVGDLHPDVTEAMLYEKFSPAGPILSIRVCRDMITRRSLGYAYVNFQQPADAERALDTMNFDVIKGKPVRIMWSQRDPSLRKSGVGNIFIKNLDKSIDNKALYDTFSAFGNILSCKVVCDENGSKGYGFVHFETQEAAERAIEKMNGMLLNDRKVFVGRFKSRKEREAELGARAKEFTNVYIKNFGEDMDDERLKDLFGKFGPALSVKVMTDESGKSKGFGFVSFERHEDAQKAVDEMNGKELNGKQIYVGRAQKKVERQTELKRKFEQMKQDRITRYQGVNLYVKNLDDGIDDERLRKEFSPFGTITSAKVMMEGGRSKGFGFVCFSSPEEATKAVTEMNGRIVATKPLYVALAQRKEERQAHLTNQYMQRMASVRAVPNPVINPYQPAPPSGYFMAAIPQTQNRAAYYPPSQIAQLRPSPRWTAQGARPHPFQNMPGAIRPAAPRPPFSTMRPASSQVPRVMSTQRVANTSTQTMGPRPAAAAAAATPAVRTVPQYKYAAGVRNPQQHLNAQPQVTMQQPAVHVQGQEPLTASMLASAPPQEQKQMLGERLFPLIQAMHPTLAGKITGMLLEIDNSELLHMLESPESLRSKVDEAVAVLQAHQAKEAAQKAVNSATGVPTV

miniμ ter310 construct A reporter mRNA level (RT-qPCR) relative to LacZ-MS2 on tethering of eIF4GId-MS2 in HeLa cells | Substance | miniμ ter310 construct A reporter mRNA level (RT-qPCR) relative to LacZ-MS2 on tethering of eIF4GIe-MS2 in HeLa cells
4 fold | eIF4GI isoform d fused to MS2-HA (eIF4GId-MS2) (natural protein) | –
– | eIF4GI isoform e fused to MS2-HA (eIF4GIe-MS2) (natural protein) | 4 fold
